These results are taken from PMC2063866.

In assay [1] the target is FLAG-tagged WAVE2 stably expressed in A431 cells (UniProt Q9Y6W5). As to the kind of experiment: co-IP.
The target of assay [2] is Recombinant full-length WAVE2 tagged with GST at its COOH terminus (UniProt Q9Y6W5). In words: dual polarization interferometry.
Sequence of Recombinant full-length WAVE2 tagged with GST at its COOH terminus (Q9Y6W5 whole entry): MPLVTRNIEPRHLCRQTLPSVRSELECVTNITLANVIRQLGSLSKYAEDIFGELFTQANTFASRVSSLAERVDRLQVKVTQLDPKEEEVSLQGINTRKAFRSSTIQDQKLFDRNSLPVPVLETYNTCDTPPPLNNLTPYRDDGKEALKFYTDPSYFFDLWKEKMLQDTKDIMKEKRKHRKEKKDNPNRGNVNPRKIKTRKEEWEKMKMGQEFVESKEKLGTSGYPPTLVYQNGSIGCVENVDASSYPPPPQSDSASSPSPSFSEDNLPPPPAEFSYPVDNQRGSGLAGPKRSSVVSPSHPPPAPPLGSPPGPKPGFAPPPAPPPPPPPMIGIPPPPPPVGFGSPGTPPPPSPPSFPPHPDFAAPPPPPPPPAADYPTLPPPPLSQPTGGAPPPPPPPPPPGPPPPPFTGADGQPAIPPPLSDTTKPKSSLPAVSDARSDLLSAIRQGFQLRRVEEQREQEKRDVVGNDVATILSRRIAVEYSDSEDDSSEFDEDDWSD

Sequence of FLAG-tagged WAVE2 stably expressed in A431 cells (Q9Y6W5 whole entry): as above

As for “IRSp53, endogenous in A431 cells (from UniProt Q9UQB8 1-552) (natural protein)”, the molar ratio of IRSp53 to WAVE2 in the purified complex in assay [1] was found to be 0.0005.
As for “SH3 domain of IRSp53 (aa 363–521) (from UniProt Q9UQB8 363-521) (domain or fragment)”, the dissociation constant Kd in assay [2] was found to be 5.7 µM.
